From the supplement of paper PMC10126150
± gives the standard deviation of the averaged measurements.

Tested on: ATP
Assay: switch fluorescence ratio, 500 uM ATP over buffer (Cy3 cluster intensity, sum of 5 cycles each) (fold (ratio)); higher = stronger signal-on switching upon ATP binding; sequences stand for … in TCGTCGGCAGCGTCAGATGTGTATAAGAGACAGTTTTTTTTTTTTTTTTTTTTTTTTT…TC
Conditions: aptamer strand: ATP DNA aptamer (quencher-CACCTGGGGGAGTATTGCGGAGGAAGG + anchor), 100 nM annealed; ATP concentration: 500 uM
Summary of the method: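 Values give the fluorescence ratio for each switch-domain sequence, averaged from per-cluster ratios of summed target-cycle to summed buffer-cycle Cy3 intensity. The Cy3-labelled switching-strand clusters sat on a modified Illumina MiSeq flow-cell, were annealed to 100 nM quencher-labelled ATP aptamer, and were imaged in selection buffer, then after 15 min with 500 uM ATP at 22 °C. Five cycles ran with NaOH stripping and re-annealing between them, and clusters outside 100-1000 RFU were excluded.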
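Note: ATP exposure 15 min at 22 °C before imaging.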

Sequence | switch fluorescence ratio
GCACTTGTTT | 1 ± 0.028
GCACTTTACG | 1.28 ± 0.06
GCAGAAAAAT | 1.04 ± 0.023
GCAGAGGGGG | 1.04 ± 0.029
GCAGAGGGTG | 1.13 ± 0.086
GCAGATCGAT | 1.03 ± 0.015
GCAGCATGTG | 1.04 ± 0.026
GCAGCCGAAT | 1.04 ± 0.0093
GCAGCTGGTG | 1.098 ± 0.00094
GCAGCTGTTT | 1.02 ± 0.044
GCAGGAAGTC | 0.994 ± 0.0039
GCAGGAATGG | 1.113 ± 0.0098
GCAGGAGTGG | 0.9929 ± 0.0088
GCAGGCCTGA | 1.01 ± 0.029
GCAGGCTACA | 1.02 ± 0.019
GCAGGGAAGG | 1.03 ± 0.035
GCAGGGAATT | 1 ± 0.045
GCAGGGATTG | 0.9734 ± 0.0058
GCAGGGCGCC | 1.01 ± 0.026
GCAGGGGGAA | 1.08 ± 0.053
GCAGGGGGCA | 1.024 ± 0.01
GCAGGGGGGG | 1.05 ± 0.054
GCAGGGGGTT | 1 ± 0.028

Sequence | switch fluorescence ratio
GCAGGTGGTG | 1.08 ± 0.062
GCAGTAAAAC | 1.694 ± 0.013
GCAGTATACC | 1.15 ± 0.019
GCAGTCACAG | 1.03 ± 0.029
GCAGTGAGGG | 0.991 ± 0.028
GCAGTGGGGA | 1 ± 0.031
GCAGTGTACG | 0.997 ± 0.0087
GCAGTTAGCC | 1.01 ± 0.034
GCAGTTGGGA | 1.02 ± 0.011
GCAGTTTTAG | 0.999 ± 0.027
GCATAATGAT | 1 ± 0.022
GCATAATGGG | 1.008 ± 0.0057
GCATAGGGAA | 1 ± 0.015
GCATAGGGAT | 0.988 ± 0.022
GCATATTGGG | 0.9866 ± 0.0042
GCATCAAGTG | 0.988 ± 0.034
GCATCACGAG | 1.08 ± 0.03
GCATCAGGGA | 1.02 ± 0.035
GCATGAAGCA | 1 ± 0.017
GCATGAATCT | 1.014 ± 0.0084
GCATGACTTT | 1.06 ± 0.028
GCATGAGGTG | 1.08 ± 0.021
GCATGCAGGG | 1.01 ± 0.045

Sequence | switch fluorescence ratio
GCATGCGCTC | 1.05 ± 0.052
GCATGGGGCC | 1 ± 0.011
GCATGGGTGG | 1 ± 0.023
GCATGTACTC | 3.36 ± 0.63
GCATTAAAGG | 0.981 ± 0.04
GCATTATCCA | 1.01 ± 0.031
GCATTGGGGT | 0.994 ± 0.012
GCATTGGTCA | 1.027 ± 0.0076
GCATTGTCAA | 0.992 ± 0.07
GCATTGTGTT | 0.991 ± 0.052
GCATTTGGGA | 0.99 ± 0.012
GCATTTGGTT | 1.01 ± 0.012
GCATTTTACA | 1 ± 0.013
GCATTTTATA | 1.02 ± 0.012
GCATTTTTTT | 0.996 ± 0.032
GCCAAAGACA | 0.9573 ± 0.0053
GCCAAAGATT | 1 ± 0.029
GCCAATGGGC | 1 ± 0.051
GCCAATTGCA | 0.97965 ± 0.00047
GCCACACAAT | 1.022 ± 0.0014
GCCACAGCTG | 1 ± 0.013
GCCACGTCAA | 1.06 ± 0.067
GCCAGAGATA | 1.0422 ± 0.00051

Sequence | switch fluorescence ratio
GCCAGAGTG | 2 ± 0.44
GCCAGCCGAC | 1.2 ± 0.032
GCCAGGAAAA | 0.957 ± 0.053
GCCAGGCCGA | 0.979 ± 0.034
GCCAGGGCGC | 1.02 ± 0.018
GCCAGGGGGG | 1.01 ± 0.029
GCCAGTTTGT | 0.9807 ± 0.0052
GCCATAGCCT | 0.9953 ± 0.0084
GCCATAGGTC | 1.012 ± 0.0043
GCCATCAATA | 1.03 ± 0.023
GCCATCAGAG | 0.973 ± 0.0044
GCCATCGGGG | 1.03 ± 0.012
GCCATTGTGG | 0.99 ± 0.019
GCCATTTTGG | 0.993 ± 0.013
GCCCAATATC | 2.68 ± 0.053
GCCCAATTTT | 0.998 ± 0.034
GCCCAGACGG | 1.31 ± 0.41
GCCCCACCTT | 1.08 ± 0.021
GCCCCCAGCG | 4.61 ± 0.65
GCCCCGTTTG | 1.0184 ± 0.00021
GCCCGACTCT | 1.01 ± 0.041
GCCCGGGATT | 1 ± 0.012
GCCCTAAGGC | 0.979 ± 0.054

Sequence | switch fluorescence ratio
GCCCTCCAGA | 1.14 ± 0.13
GCCCTGGGTC | 1.02 ± 0.06
GCCCTTGTAC | 1.2 ± 0.094
GCCGAATCTG | 1 ± 0.02
GCCGATGCCT | 1.02 ± 0.015
GCCGCCCTGG | 1.056 ± 0.0076
GCCGCCGTAA | 1.3 ± 0.079
GCCGCGAAGG | 1.02 ± 0.018
GCCGCGGGTC | 1.08 ± 0.048
GCCGGAAGAA | 1.05 ± 0.037
GCCGGACATT | 0.998 ± 0.02
GCCGGAGCGG | 1.38 ± 0.062
GCCGGCAAGT | 1.02 ± 0.016
GCCGGCCGGA | 1.02 ± 0.02
GCCGGGAGTA | 1.004 ± 0.0031
GCCGGGCTTG | 1.02 ± 0.017
GCCGGGGACG | 1.01 ± 0.011
GCCGGGGTGA | 1.04 ± 0.043
GCCGTAGTGC | 1.01 ± 0.03
GCCGTATGCT | 0.9859 ± 0.0092
GCCGTCTCCC | 1.03 ± 0.047
GCCGTGGCGG | 0.9753 ± 0.0041
GCCGTTGCAT | 1.022 ± 0.0019

Sequence | switch fluorescence ratio
GCCTAATAGT | 0.98 ± 0.027
GCCTAATGTT | 0.957 ± 0.022
GCCTACTGTT | 0.9855 ± 0.0094
GCCTAGGGTT | 1 ± 0.023
GCCTATAGTC | 0.991 ± 0.03
GCCTGAGAGC | 0.9754 ± 0.0021
GCCTGGGGGA | 1.07 ± 0.12
GCCTGGTTGG | 0.995 ± 0.015
GCCTGTAGGA | 1.01 ± 0.015
GCCTGTATAG | 0.9958 ± 0.0052
GCCTGTTTGT | 0.983 ± 0.02
GCCTTAGGGT | 1.015 ± 0.0029
GCCTTAGTGA | 0.9959 ± 0.0046
GCCTTATATG | 0.968 ± 0.03
GCCTTCCTTT | 2.15 ± 0.72
GCCTTGACAG | 0.989 ± 0.025
GCCTTGGACG | 1.041 ± 0.0076
GCCTTGGGGG | 1 ± 0.028
GCCTTTCAGA | 1.005 ± 0.0053
GCCTTTTGCG | 1.01 ± 0.018
GCGAAGGCGT | 0.9709 ± 0.0033
GCGAAGTGCG | 0.979 ± 0.015
GCGAATCGGT | 1.01 ± 0.022

Sequence | switch fluorescence ratio
GCGAATGCTG | 1.006 ± 0.0089
GCGAATTAGA | 1 ± 0.034
GCGAATTAGG | 0.9719 ± 0.0032
GCGAATTTTG | 0.9994 ± 0.0081
GCGACCCTT | 1.12 ± 0.037
GCGACGAAGG | 1.02 ± 0.012
GCGACGGGGA | 1.08 ± 0.021
GCGAGAATAT | 1.03 ± 0.043
GCGAGAGGAT | 0.985 ± 0.028
GCGAGATCTT | 0.968 ± 0.015
GCGAGCGATG | 0.9988 ± 0.0062
GCGAGCGCTG | 1.02 ± 0.032
GCGAGGCCAA | 1.28 ± 0.054
GCGAGGGGTG | 1.02 ± 0.048
GCGAGGTCGA | 0.991 ± 0.038
GCGATAGTGG | 0.974 ± 0.011
GCGATATGTT | 1.03 ± 0.043
GCGATCAGCT | 1.034 ± 0.0022
GCGATGAGAG | 1.03 ± 0.026
